# Measurements: paper PMC4689532
# Key:
# Assay in all cases: SPR; Biacore T100, 37°C, HBS-EP; biotinylated ligand captured with the Biotin CAPture Kit, reference biotinylated rat Cd4d3+4; purified his-tagged analyte injected at 20 μl/min, equilibrium fit Req = CRmax/(C+KD); lower concentrations did not reach equilibrium, KD likely slightly overestimated
# [1] = target: P. falciparum P41, AVEXIS bait/prey form (P. falciparum)
# [2] = target: P. vivax P41 (PVX_000995, 6-cysteine protein), entire ectodomain, AVEXIS bait/prey form (P. vivax) (UniProt A5KAP6)
# [3] = target: P. vivax P12 (PVX_113775, 6-cysteine protein), entire ectodomain, AVEXIS bait/prey form (P. vivax) (UniProt A5K1W7)
substance,measurement,setting,value
"P. vivax P12 (PVX_113775), entire ectodomain, 6-His tagged, purified (from UniProt A5K1W7 24-339) (domain or fragment)",Kd,[1],31 nM
same,Kd,[2],120 nM
"P. vivax P41 (PVX_000995), entire ectodomain, 6-His tagged, purified (from UniProt A5KAP6 22-384) (domain or fragment)",Kd,[3],77 nM
